Patent US20100029702A1, “Method For Identification of Compound Having Anti-Anxiety Effect” (priority 2006, published 2010)

What was measured:
7tmHR = target: T1, 7tmHR (Homo sapiens, UniProt O60241); test: Changes in intracellular Ca2+ concentration in 7tmHR stably-expressing strain; type: cell-based
T1 construct: a vector expressing each full-length cDNA clone was constructed; expressed in transfected cells; host or cells: CHO-K1, 7tmHR/pcDNA3.1
Protocol: (§1) The 7tmHR stably-expressing strain and the hk01941 stably-expressing strain were prepared by transfecting the 7tmHR-expressing vector (7tmHR/pcDNA3.1) and the hk01941-expressing vector (hk01941/pcDNA3.1), respectively, into a CHO-K1 cell strain. Specifically, the expression vector was mixed with Lipofectamine 2000, (may be referred to as LF2000, Invitrogen) (4 μg DNA/250 μL of DMEM/F12 medium+10 μL of LF2000/250 μL DMEM/F12 medium) and added the CHO-K1 strain (2 mL medium/well) cultured in a 6-well plate to be transfected thereinto. On the following day, cells were recovered and seeded in a 96-well plate at cell density of 1 cell/well, cultured in a selective medium containing G418 (400 μg/mL) (DMEM/F 12 medium containing 10% FCS), and screened for expression cell strains. […]
(§2) Changes in the intracellular calcium (Ca^2+) concentration induced by CCK-8S were measured by a method similar to the method described in Example 5 using the 7tmHR stably-expressing strain and the hk01941 stably-expressing strain prepared in Example 7. […]
(§3) Cells were seeded in a 96-well plate (a plate with a black wall and a transparent bottom) at a cell count of 3×10^4/100 μL of medium/well and cultured overnight at 37° C. in a 5% CO2 incubator. […] After reaction, changes over time in the fluorescence intensity in each well after addition of CCK-8S were measured using the FLEX station (Molecular Device). […]

hk01941 = target: T2, hk01941 (Homo sapiens, UniProt O60241, DEL308-417); test: Changes in intracellular Ca2+ concentration in hk01941 stably-expressing strain; type: cell-based
T2 construct: a vector expressing each full-length cDNA clone was constructed; expressed in transfected cells; host or cells: CHO-K1, hk01941/pcDNA3.1
T2 sequence (O60241 with tags, fused parts or gaps DEL308-417): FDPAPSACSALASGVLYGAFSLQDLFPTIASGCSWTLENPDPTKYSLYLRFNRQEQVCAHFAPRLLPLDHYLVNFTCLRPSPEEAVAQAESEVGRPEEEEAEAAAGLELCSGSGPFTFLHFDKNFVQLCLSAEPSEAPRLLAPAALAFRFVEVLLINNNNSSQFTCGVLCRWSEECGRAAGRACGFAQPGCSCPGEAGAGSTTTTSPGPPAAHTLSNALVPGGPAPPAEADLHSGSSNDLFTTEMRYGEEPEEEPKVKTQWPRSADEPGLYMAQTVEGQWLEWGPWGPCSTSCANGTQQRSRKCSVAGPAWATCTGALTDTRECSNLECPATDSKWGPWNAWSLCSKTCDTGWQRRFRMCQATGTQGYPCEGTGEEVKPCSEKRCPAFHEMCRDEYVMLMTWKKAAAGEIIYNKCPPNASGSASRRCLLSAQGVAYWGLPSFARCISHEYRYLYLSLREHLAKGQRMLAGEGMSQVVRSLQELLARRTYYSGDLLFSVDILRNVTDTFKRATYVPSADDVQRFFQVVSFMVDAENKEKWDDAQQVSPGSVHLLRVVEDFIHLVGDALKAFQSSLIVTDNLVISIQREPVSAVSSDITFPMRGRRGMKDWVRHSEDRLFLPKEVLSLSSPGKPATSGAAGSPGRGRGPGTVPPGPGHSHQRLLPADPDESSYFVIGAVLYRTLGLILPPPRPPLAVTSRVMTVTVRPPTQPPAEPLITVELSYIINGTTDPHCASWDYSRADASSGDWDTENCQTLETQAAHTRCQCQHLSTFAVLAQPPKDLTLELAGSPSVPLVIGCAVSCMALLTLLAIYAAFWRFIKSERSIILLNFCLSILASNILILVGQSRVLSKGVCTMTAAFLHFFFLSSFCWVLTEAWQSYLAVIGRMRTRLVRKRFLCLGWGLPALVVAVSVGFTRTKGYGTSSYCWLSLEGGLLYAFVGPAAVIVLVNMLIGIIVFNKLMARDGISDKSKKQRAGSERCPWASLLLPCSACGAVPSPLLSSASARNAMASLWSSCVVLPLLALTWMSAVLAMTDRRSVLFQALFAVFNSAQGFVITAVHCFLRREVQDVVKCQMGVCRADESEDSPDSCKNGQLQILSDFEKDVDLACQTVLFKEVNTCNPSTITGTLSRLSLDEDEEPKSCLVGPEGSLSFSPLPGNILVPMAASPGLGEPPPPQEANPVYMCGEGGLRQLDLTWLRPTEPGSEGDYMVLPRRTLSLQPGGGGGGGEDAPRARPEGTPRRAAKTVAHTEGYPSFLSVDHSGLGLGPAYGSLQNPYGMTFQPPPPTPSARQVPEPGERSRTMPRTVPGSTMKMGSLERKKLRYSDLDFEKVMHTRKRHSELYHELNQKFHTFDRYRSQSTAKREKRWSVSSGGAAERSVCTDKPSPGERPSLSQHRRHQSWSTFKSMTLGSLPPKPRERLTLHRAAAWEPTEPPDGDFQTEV
Protocol: as §1, §2, §3

T1 sequence (O60241 13-1585): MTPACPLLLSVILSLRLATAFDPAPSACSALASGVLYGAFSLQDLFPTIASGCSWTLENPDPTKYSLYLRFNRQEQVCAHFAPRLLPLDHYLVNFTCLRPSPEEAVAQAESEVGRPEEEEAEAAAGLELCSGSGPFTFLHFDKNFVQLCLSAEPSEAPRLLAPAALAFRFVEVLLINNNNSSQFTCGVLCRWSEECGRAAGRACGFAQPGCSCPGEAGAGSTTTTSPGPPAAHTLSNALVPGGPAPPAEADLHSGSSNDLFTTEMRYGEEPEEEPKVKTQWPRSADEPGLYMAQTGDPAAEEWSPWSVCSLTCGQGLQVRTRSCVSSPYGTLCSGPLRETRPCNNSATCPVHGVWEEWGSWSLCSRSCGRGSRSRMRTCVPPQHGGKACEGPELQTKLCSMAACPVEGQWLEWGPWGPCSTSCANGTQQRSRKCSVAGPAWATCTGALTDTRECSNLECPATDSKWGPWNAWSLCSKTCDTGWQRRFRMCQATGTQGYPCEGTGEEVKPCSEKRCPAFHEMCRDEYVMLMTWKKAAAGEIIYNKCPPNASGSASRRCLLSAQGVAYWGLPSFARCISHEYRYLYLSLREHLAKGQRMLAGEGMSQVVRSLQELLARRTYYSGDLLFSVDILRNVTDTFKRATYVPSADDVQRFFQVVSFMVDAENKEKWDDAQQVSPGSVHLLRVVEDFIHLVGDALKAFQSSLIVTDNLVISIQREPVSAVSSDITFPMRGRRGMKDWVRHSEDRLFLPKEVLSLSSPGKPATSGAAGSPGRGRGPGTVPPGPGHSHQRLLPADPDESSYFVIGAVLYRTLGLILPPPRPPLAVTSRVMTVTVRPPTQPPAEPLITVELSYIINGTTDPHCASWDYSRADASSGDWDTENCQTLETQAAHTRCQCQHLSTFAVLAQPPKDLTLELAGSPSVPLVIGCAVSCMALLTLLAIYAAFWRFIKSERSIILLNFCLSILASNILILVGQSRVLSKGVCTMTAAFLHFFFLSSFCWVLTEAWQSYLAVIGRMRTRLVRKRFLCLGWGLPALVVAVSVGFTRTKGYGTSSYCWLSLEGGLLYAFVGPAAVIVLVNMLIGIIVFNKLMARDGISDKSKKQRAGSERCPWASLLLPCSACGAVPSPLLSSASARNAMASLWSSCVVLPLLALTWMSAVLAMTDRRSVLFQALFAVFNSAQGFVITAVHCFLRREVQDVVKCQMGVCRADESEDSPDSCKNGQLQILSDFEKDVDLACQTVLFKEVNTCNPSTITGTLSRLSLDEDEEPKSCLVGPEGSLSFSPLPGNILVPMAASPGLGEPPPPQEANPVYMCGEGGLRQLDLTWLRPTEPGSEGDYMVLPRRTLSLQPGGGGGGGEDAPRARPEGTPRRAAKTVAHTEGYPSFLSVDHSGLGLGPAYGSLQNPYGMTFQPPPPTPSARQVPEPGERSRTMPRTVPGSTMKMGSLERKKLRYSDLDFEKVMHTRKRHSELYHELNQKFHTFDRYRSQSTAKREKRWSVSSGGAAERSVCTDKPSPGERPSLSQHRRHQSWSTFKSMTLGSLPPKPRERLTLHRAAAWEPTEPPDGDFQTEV

| Change in intracellular Ca2+ concentration after addition of CCK-8S (7tmHR; 7tmHR stably-expressing strain, CCK-8S 10 pM to 1 μM, figure at 1 nM) | Change in intracellular Ca2+ concentration after addition of CCK-8S (hk01941; hk01941 stably-expressing strain, CCK-8S 10 pM to 1 μM, figure at 1 nM) | Compound | Change in intracellular Ca2+ concentration (fluorescence intensity) (7tmHR; 7tmHR/CHO#6, A23187 20 μM, positive control) | Change in intracellular Ca2+ concentration (fluorescence intensity) (hk01941; hk01941/CHO#13, A23187 20 μM, positive control) |
| --- | --- | --- | --- | --- |
| increase | increase | cholecystokinin octapeptide sulfated form [CCK-8S] | – | – |
| – | – | CNc1ccc2oc(C[C@H]3O[C@@]4(CC[C@H]3C)O[C@H]([C@H](C)C(=O)c3ccc[nH]3)[C@H](C)C[C@H]4C)nc2c1C(=O)O [A23187] | increased | increased |
